From patent publication US20110301073 come the findings set out here.

Common to all, as to settings: average of 3 experiments
Series [1] has as its system TALE repeat framework A10L (SEQ 408) repeat 5: A10L (Xanthomonas sp. (engineered)).
In series [2] the test system is TALE repeat framework Q23A (SEQ 413) repeat 5: Q23A (Xanthomonas sp. (engineered)).
For series [3], the system named is TALE repeat framework V22A (SEQ 412) repeat 5: V22A (Xanthomonas sp. (engineered)).
Series [4] relates to TALE repeat framework Q23R (SEQ 414) repeat 5: Q23R (Xanthomonas sp. (engineered)).
Series [5] concerns TALE repeat framework P27A (SEQ 421) repeat 5: P27A (Xanthomonas sp. (engineered)).
The subject of series [6] is TALE repeat framework L25Q (SEQ 419) repeat 5: L25Q (Xanthomonas sp. (engineered)).
Series [7] has as its system TALE repeat framework V6A (SEQ 76) repeat 5: V6A (Xanthomonas sp. (engineered)).
The subject of series [8] is TALE repeat framework I9V (SEQ 407) repeat 5: I9V (Xanthomonas sp. (engineered)).
For series [9], the system named is TALE repeat framework A8L (SEQ 404) repeat 5: A8L (Xanthomonas sp. (engineered)).
Series [10] relates to TALE repeat framework Q23W (SEQ 416) repeat 5: Q23W (Xanthomonas sp. (engineered)).
The test system of series [11] is TALE repeat framework T2S/P3T/D4A (SEQ 424) repeat 5: T2S,P3T,D4A (Xanthomonas sp. (engineered)).
Series [12] concerns TALE repeat framework P27L (SEQ 422) repeat 5: P27L (Xanthomonas sp. (engineered)).
In series [13] the test system is TALE repeat framework A8T (SEQ 405) repeat 5: A8T (Xanthomonas sp. (engineered)).
Series [14] deals with TALE repeat framework T21A (SEQ 411) repeat 5: T21A (Xanthomonas sp. (engineered)).

With “TTGACCATCCT (double strand) [CCA target]”, the binding signal (normalized ELISA) in [1] was 0.25; in [2], 0.91; in [3], 0.7; in [4], 0.97; in series [5] it was 1.21; in [6], 0.9. The binding signal (normalized ELISA) in [7] came to 0.89; in [8], 0.76; in [9], 0.73; in [10], 0.88; in series [11], 0; in series [12], 1.29. The binding signal (normalized ELISA) amounted to 0.82 in series [13] and 1.05 in [14].
